Literature values as cited in patent publication US20150177237.

Biological target: thrombin (UniProt P00734+P00734)
Details: n positions 6-20 are abasic (x); CITED known Kd of thrombin for its aptamer; nanopore event ratios at 10-1000 nM thrombin closely match theory from this Kd; 1 M KCl, 10 mM Tris pH 7.5

AAAAANNNNNNNNNNNNNNNAAAAAAAAAAGGTTGGTGTGGTTGG [5A15x10A_TBA]
Kd: 50 nM
